Results taken from the supplement of paper PMC10899765.

Tests used:
Settings in all cases: 20 nM; 72 h
MCF10A [1] = test: percent viability (nuclei count relative to siNT); higher = more viable cells
Method: (§1)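 After 72 h, cells were fixed and stained with Hoechst and anti-fibrillarin, and nucleoli per nucleus were counted with CellProfiler. Values are plate-adjusted percent effect for the one-nucleolus and 5+ nucleoli phenotypes, normalised to siNT (0%) and to the positive controls siNOL11 or siKIF11 (100%), as the mean of biological triplicates. Percent viability is the nuclei count relative to siNT.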

MCF10A [2] = test: 5+ nucleoli phenotype percent effect (relative to siNT 0% and siKIF11 100%); higher = more cells with five or more nucleoli
Method: as §1

MCF10A [3] = test: nucleolar rRNA biogenesis percent inhibition (5-EU; siNT 0%, siPOLR1A 100%); higher = stronger inhibition of nucleolar rRNA biogenesis
Method: (§2)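 Primary screen hits (microRNA mimics) were re-picked and rescreened for nucleolar number in MCF10A cells (hitpick validation; percent effect relative to the siNT and siNOL11/siKIF11 controls). A secondary screen measured nucleolar rRNA biogenesis inhibition: after 72 h of transfection at 20 nM, cells were labelled 1 h with 1 mM 5-EU and nucleolar 5-EU signal was quantified, normalised to siNT (0%) and siPOLR1A (100%). Means are over n=5 (MCF10A) or n=2 (RPE-1, HeLa) biological replicates.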

MCF10A [4] = test: one-nucleolus phenotype percent effect, hitpick validation (relative to siNT 0% and siNOL11 100%); higher = more cells with one nucleolus
Method: as §2

MCF10A [5] = test: 5+ nucleoli phenotype percent effect, hitpick validation (relative to siNT 0% and siKIF11 100%); higher = more cells with five or more nucleoli
Method: as §2

MCF10A [6] = test: one-nucleolus phenotype percent effect (relative to siNT 0% and siNOL11 100%); higher = more cells with one nucleolus (ribosome biogenesis inhibition)
Method: as §1

| Sequence | percent viability (MCF10A [1]) | 5+ nucleoli phenotype percent effect (MCF10A [2]) | nucleolar rRNA biogenesis percent inhibition (MCF10A [3]) | one-nucleolus phenotype percent effect (MCF10A [4]) | 5+ nucleoli phenotype percent effect (MCF10A [5]) | one-nucleolus phenotype percent effect (MCF10A [6]) |
| --- | --- | --- | --- | --- | --- | --- |
| AAAAGGCAUUGUGGUUUUUG [hsa-miR-548an] | 11.6% | -52.6% | 65.7% | 194% | -8.86% | 137% |
| AAAAGGCGGGAGAAGCCCCA [hsa-miR-4484] | 12% | -51.6% | 69.6% | 199% | -14.7% | 92.8% |
| UUGUACAUGGUAGGCUUUCAUU [hsa-miR-493-5p] | 81.7% | -9.79% |  |  |  | 3.68% |
| UUGUCUCUUGUUCCUCACACAG [hsa-miR-6818-3p] | 57.7% | 16.4% |  |  |  | -11.1% |
| UUGUCUGCUGAGUUUCC [hsa-miR-4288] | 31.9% | -15.9% |  |  |  | 27.6% |
| UUGUGAAGAAAGAAAUUCUUA [hsa-miR-3611] | 53.1% | -15.1% |  |  |  | 12.5% |
| UUGUGCUUGAUCUAACCAUGU [hsa-miR-218-5p] | 151% | 35.8% |  |  |  | -8.63% |
| UUGUGGAUCUCAAGGAUGUGCU [hsa-miR-4752] | 31.5% | -34.7% |  |  |  | 43.7% |
| UUGUGGCUGGUCAUGAGGCUAA [hsa-miR-4474-3p] | 75.4% | 22.3% |  |  |  | 3.27% |
| UUGUGGGGUUGGAGAGCUGGCUG [hsa-miR-6796-5p] | 17.2% | -31.5% |  |  |  | 45.3% |
| UUGUGGGUGGGCAGAAGUCUGU [hsa-miR-6759-5p] | 21.7% | -37.5% |  |  |  | 49.5% |
| UUGUGUCAAUAUGCGAUGAUGU [hsa-miR-592] | 69.9% | -26.9% |  |  |  | 31.3% |
| UUGUGUGAGUACAGAGAGCAUC [hsa-miR-6818-5p] | 17.1% | -31.6% |  |  |  | 66.1% |
| UUGUUCUCAAACUGGCUGUCAGA [hsa-miR-7156-5p] | 46.2% | 25.8% |  |  |  | -16.5% |
| UUGUUCUUUGGUCUUUCAGCCA [hsa-miR-4677-5p] | 42.5% | -26.7% |  |  |  | 20.3% |
| UUUAACAUGGGGGUACCUGCUG [hsa-miR-302c-5p] | 121% | 22.3% |  |  |  | -8.1% |
| UUUAAGAAAACACCAUGGAGAU [hsa-miR-3658] | 148% | 18.1% |  |  |  | -25.1% |
| UUUAAGCAGGAAAUAGAAUUUA [hsa-miR-4503] | 100% | -5.17% |  |  |  | -6.55% |
| UUUAGAGACGGGGUCUUGCUCU [hsa-miR-1303] | 71.3% | 17.6% |  |  |  | -10.2% |
| UUUAGAUUGAACAUGAAGUUAG [hsa-miR-4760-5p] | 83.5% | 46.3% |  |  |  | -20.8% |
| UUUAGGAUAAGCUUGACUUUUG [hsa-miR-651] | 140% | 33.3% |  |  |  | -20.4% |
| UUUAGUGUGAUAAUGGCGUUUGA [hsa-miR-3591-5p] | 39.6% | 0.56% |  |  |  | 11.5% |
| UUUCAAGCCAGGGGGCGUUUUUC [hsa-miR-498] | 61% | 23.7% |  |  |  | -7.63% |
| UUUCAGAUAACAGUAUUACAU [hsa-miR-3942-3p] | 58.8% | -0.677% |  |  |  | -15.3% |
| UUUCCAUAGGUGAUGAGUCAC [hsa-miR-587] | 86.7% | 39.4% |  |  |  | -21.6% |
| UUUCCCUUCAGAGCCUGGCUUU [hsa-miR-4755-5p] | 52.8% | 1.53% |  |  |  | 3.84% |
| UUUCCCUUUCCAUCCUGGCAG [hsa-miR-5006-3p] | 31.7% | 18.5% |  |  |  | 4.84% |
| UUUCCGGCUCGCGUGGGUGUGU [hsa-miR-1180] | 31.8% | -27.5% |  |  |  | 12.6% |

| Sequence | percent viability (MCF10A [1]) | 5+ nucleoli phenotype percent effect (MCF10A [2]) | nucleolar rRNA biogenesis percent inhibition (MCF10A [3]) | one-nucleolus phenotype percent effect (MCF10A [4]) | 5+ nucleoli phenotype percent effect (MCF10A [5]) | one-nucleolus phenotype percent effect (MCF10A [6]) |
| --- | --- | --- | --- | --- | --- | --- |
| UUUCCUACCCUACCUGAAGACU [hsa-miR-3685] | 36.6% | -32.6% |  |  |  | 16.6% |
| UUUCCUCAUAUUCAUUCAGGA [hsa-miR-670-3p] | 46.6% | -7.45% |  |  |  | 4.99% |
| UUUCCUGUCCUCCAACCAGACC [hsa-miR-7152-5p] | 26.5% | -28.9% |  |  |  | 11.7% |
| UUUCUAUGUUAGUUGGAAG [hsa-miR-7159-3p] | 26.4% | 0.357% |  |  |  | 5.4% |
| UUUCUAUUUCUCAGUGGGGCUC [hsa-miR-4482-3p] | 21.2% | 0.737% |  |  |  | 31.6% |
| UUUCUCUCUCCACUUCCUCAG [hsa-miR-6833-3p] | 28.4% | 22.2% |  |  |  | -1.79% |
| UUUCUGUCUUUUCUGGUCCAG [hsa-miR-4743-3p] | 17.7% | -25.7% |  |  |  | 57.9% |
| UUUCUUCUUAGACAUGGCAACG [hsa-miR-4659a-3p] | 51.4% | -14.6% |  |  |  | -9.58% |
| UUUCUUCUUAGACAUGGCAGCU [hsa-miR-4659b-3p] | 31.6% | -29.4% |  |  |  | -5.32% |
| UUUGAGGCUACAGUGAGAUGUG [hsa-miR-1304-5p] | 68.3% | 15.4% |  |  |  | 0.012% |
| UUUGGACAGAAAACACGCAGGU [hsa-miR-4520b-3p] | 87% | 50% |  |  |  | -21.6% |
| UUUGGCAAUGGUAGAACUCACACU [hsa-miR-182-5p] | 22.8% | 13.1% |  |  |  | 25% |
| UUUGGCACUAGCACAUUUUUGCU [hsa-miR-96-5p] | 28.4% | 16.6% |  |  |  | 19.4% |
| UUUGGGAUUGACGCCACAUGUCU [hsa-miR-6513-5p] | 72.6% | 91.1% |  |  |  | -20.1% |
| UUUGGUCCCCUUCAACCAGCUA [hsa-miR-133b] | 52.5% | -11.4% |  |  |  | 16.1% |
| UUUGGUCCCCUUCAACCAGCUG [hsa-miR-133a] | 34.5% | -24.8% |  |  |  | 20.5% |
| UUUGUAUGGAUAUGUGUGUGUAU [hsa-miR-3149] | 37.6% | -7.06% |  |  |  | 2.3% |
| UUUGUGACCUGGUCCACUAACC [hsa-miR-758-3p] | 52.5% | -42% |  |  |  | 35.1% |
| UUUGUUCGUUCGGCUCGCGUGA [hsa-miR-375] | 59.7% | 5.82% |  |  |  | 0.601% |
| UUUUAAGGACACUGAGGGAUC [hsa-miR-7856-5p] | 70.5% | 57.8% |  |  |  | -30.1% |
| UUUUCAACUCUAAUGGGAGAGA [hsa-miR-1305] | 72.2% | -6.71% |  |  |  | 9.11% |
| UUUUGCAAUAUGUUCCUGAAUA [hsa-miR-450b-5p] | 108% | 14.4% |  |  |  | -22.9% |
| UUUUGCACCUUUUGGAGUGAA [hsa-miR-507] | 42.2% | -28% |  |  |  | 25.1% |
| UUUUGCAUGACCCUGGGAGUAGG [hsa-miR-3680-3p] | 51% | -18.3% |  |  |  | 11.5% |
| UUUUGCGAUGUGUUCCUAAUAU [hsa-miR-450a-5p] | 65.3% | 13.7% |  |  |  | 3.94% |
| UUUUGUGUCUCCCAUUCCCCAG [hsa-miR-5010-3p] | 57.3% | -18.5% |  |  |  | -9.03% |
| UUUUUCAUUAUUGCUCCUGACC [hsa-miR-335-3p] | 157% | 26.8% |  |  |  | -20.3% |
